Experimental data as given in the supplement of paper PMC9112550, “Optimization of the antimicrobial peptide Bac7 by deep mutational scanning” (BMC Biology, 2022).

Tested on: Escherichia coli TOP10
Assay: shrunken log2 fold change of peptide-encoding DNA abundance (4.5 h post-induction vs induction); higher = less antimicrobial activity (less host growth inhibition)
Settings: time post-induction: 4.5 h; library: site-saturation at positions 5, 18, 19, 20
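Note: peptides expressed intracellularly from a pBAD plasmid library in pooled LB shake-flask culture, induced with 0.3% L-arabinose, DNA abundance read by NGS, three biological replicates, DESeq2 with apeglm shrinkage.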

Row | Sequence | shrunken log2 fold change
1 | RRIRYRPPRLPRPRPRPPQGPRP | -0.0838
2 | RRIRWRPPRLPRPRPRPISPPRP | -0.887
3 | RRIRFRPPRLPRPRPRPSVSPRP | -0.2
4 | RRIRWRPPRLPRPRPRPGTQPRP | 0.216
5 | RRIRMRPPRLPRPRPRPQKMPRP | 0.0453
6 | RRIRMRPPRLPRPRPRPPYEPRP | 0.0457
7 | RRIRRRPPRLPRPRPRPQNKPRP | -0.172
8 | RRIRKRPPRLPRPRPRPYTYPRP | -0.119
9 | RRIRCRPPRLPRPRPRPEQQPRP | -0.0118
10 | RRIRTRPPRLPRPRPRPFRSPRP | -0.144
11 | RRIRTRPPRLPRPRPRPTTGPRP | -0.191
12 | RRIRQRPPRLPRPRPRPSGAPRP | 0.054
13 | RRIRPRPPRLPRPRPRPTCVPRP | -0.136
14 | RRIRERPPRLPRPRPRPIMGPRP | -0.21
15 | RRIRCRPPRLPRPRPRPSRPPRP | 0.245
16 | RRIRPRPPRLPRPRPRPQVIPRP | -0.0452
17 | RRIRWRPPRLPRPRPRPREFPRP | 0.349
18 | RRIRVRPPRLPRPRPRPYVPPRP | -0.398
19 | RRIRKRPPRLPRPRPRPRGVPRP | 0.782
20 | RRIRNRPPRLPRPRPRPMDKPRP | 0.00658
21 | RRIRSRPPRLPRPRPRPNPVPRP | -0.0484
22 | RRIRERPPRLPRPRPRPMCVPRP | -0.461
23 | RRIRKRPPRLPRPRPRPVEDPRP | -0.000777
24 | RRIRGRPPRLPRPRPRPPIEPRP | 0.196
25 | RRIRNRPPRLPRPRPRPKLLPRP | 0.127

Row | Sequence | shrunken log2 fold change
26 | RRIRWRPPRLPRPRPRPMMIPRP | -0.0137
27 | RRIRMRPPRLPRPRPRPWVCPRP | 0.154
28 | RRIRIRPPRLPRPRPRPMIYPRP | -0.205
29 | RRIRYRPPRLPRPRPRPEWGPRP | -0.169
30 | RRIRPRPPRLPRPRPRPFAIPRP | -0.232
31 | RRIRFRPPRLPRPRPRPIYHPRP | -0.701
32 | RRIRMRPPRLPRPRPRPLKKPRP | 0.349
33 | RRIRQRPPRLPRPRPRPKHSPRP | -0.0171
34 | RRIRIRPPRLPRPRPRPLHCPRP | -1.13
35 | RRIRHRPPRLPRPRPRPTWPPRP | 0.25
36 | RRIRTRPPRLPRPRPRPDKNPRP | -0.143
37 | RRIRRRPPRLPRPRPRPSDSPRP | 0.141
38 | RRIRFRPPRLPRPRPRPYQQPRP | 0.00163
39 | RRIRKRPPRLPRPRPRPGLLPRP | 0.494
40 | RRIRPRPPRLPRPRPRPCQCPRP | -0.0627
41 | RRIRIRPPRLPRPRPRPKAIPRP | -0.157
42 | RRIRPRPPRLPRPRPRPTAMPRP | 0.0577
43 | RRIRVRPPRLPRPRPRPLQDPRP | -0.104
44 | RRIRCRPPRLPRPRPRPQDSPRP | -0.0482
45 | RRIRPRPPRLPRPRPRPTIAPRP | -0.0457
46 | RRIRDRPPRLPRPRPRPEVWPRP | 1.75
47 | RRIRTRPPRLPRPRPRPHRCPRP | -0.0268
48 | RRIRRRPPRLPRPRPRPSEGPRP | 0.163
49 | RRIRRRPPRLPRPRPRPQIRPRP | 0.178
50 | RRIRHRPPRLPRPRPRPTFSPRP | -0.22

Row | Sequence | shrunken log2 fold change
51 | RRIRWRPPRLPRPRPRPHEQPRP | 0.718
52 | RRIRSRPPRLPRPRPRPADTPRP | -0.0432
53 | RRIRLRPPRLPRPRPRPQYAPRP | -0.0369
54 | RRIRLRPPRLPRPRPRPTRHPRP | 0.156
55 | RRIRIRPPRLPRPRPRPNQEPRP | -0.177
56 | RRIRVRPPRLPRPRPRPGPNPRP | 0.0445
57 | RRIRQRPPRLPRPRPRPFTWPRP | -0.398
58 | RRIRSRPPRLPRPRPRPIMMPRP | -0.0828
59 | RRIRMRPPRLPRPRPRPDLWPRP | 2.21
60 | RRIRGRPPRLPRPRPRPGVIPRP | 0.375
61 | RRIRRRPPRLPRPRPRPFTYPRP | -0.22
62 | RRIRQRPPRLPRPRPRPDFYPRP | -0.288
63 | RRIRARPPRLPRPRPRPHLIPRP | -0.0757
64 | RRIRDRPPRLPRPRPRPLNMPRP | 0.111
65 | RRIRRRPPRLPRPRPRPINGPRP | -0.0719
66 | RRIRWRPPRLPRPRPRPKATPRP | 0.264
67 | RRIRTRPPRLPRPRPRPNDSPRP | -0.00242
68 | RRIRHRPPRLPRPRPRPFNGPRP | -0.118
69 | RRIRERPPRLPRPRPRPQTQPRP | -0.0049
70 | RRIRKRPPRLPRPRPRPIAYPRP | -0.0799
71 | RRIRGRPPRLPRPRPRPDMWPRP | 0.132
72 | RRIRQRPPRLPRPRPRPKIMPRP | -0.668
73 | RRIRGRPPRLPRPRPRPEKKPRP | 0.102
74 | RRIRPRPPRLPRPRPRPHPWPRP | 0.0817
75 | RRIRERPPRLPRPRPRPSVGPRP | 0.0861

Row | Sequence | shrunken log2 fold change
76 | RRIRIRPPRLPRPRPRPGPHPRP | 0.0135
77 | RRIRERPPRLPRPRPRPSKGPRP | -0.35
78 | RRIRQRPPRLPRPRPRPEYRPRP | 0.0706
79 | RRIRMRPPRLPRPRPRPQSDPRP | -0.00296
80 | RRIRKRPPRLPRPRPRPRNKPRP | -0.08
81 | RRIRERPPRLPRPRPRPNRTPRP | -1.51
82 | RRIRQRPPRLPRPRPRPELVPRP | -0.142
83 | RRIRPRPPRLPRPRPRPRLFPRP | 1.92
84 | RRIRSRPPRLPRPRPRPHDWPRP | -0.323
85 | RRIRDRPPRLPRPRPRPYPIPRP | 0.0369
86 | RRIRRRPPRLPRPRPRPRRRPRP | 0.778
87 | RRIRSRPPRLPRPRPRPQQSPRP | -0.235
88 | RRIRHRPPRLPRPRPRPFFFPRP | 0.123
89 | RRIRRRPPRLPRPRPRPKTLPRP | 0.146
90 | RRIRTRPPRLPRPRPRPYSRPRP | 0.0299
91 | RRIRYRPPRLPRPRPRPGYRPRP | -0.46
92 | RRIRKRPPRLPRPRPRPKWHPRP | 0.0114
93 | RRIRWRPPRLPRPRPRPADIPRP | 0.0169
94 | RRIRFRPPRLPRPRPRPQFCPRP | -0.0625
95 | RRIRWRPPRLPRPRPRPSDDPRP | 0.328
96 | RRIRARPPRLPRPRPRPMNKPRP | -0.00986
97 | RRIRSRPPRLPRPRPRPCPQPRP | 0.0538
98 | RRIRIRPPRLPRPRPRPEMEPRP | -0.0895
99 | RRIRLRPPRLPRPRPRPSEQPRP | -0.153
100 | RRIRIRPPRLPRPRPRPQEVPRP | 0.0526

Row | Sequence | shrunken log2 fold change
101 | RRIRTRPPRLPRPRPRPLHRPRP | -0.287
102 | RRIRIRPPRLPRPRPRPGDLPRP | -0.223
103 | RRIRGRPPRLPRPRPRPEHQPRP | 0.529
104 | RRIRTRPPRLPRPRPRPKVSPRP | -0.0491
105 | RRIRYRPPRLPRPRPRPGGFPRP | -0.169
106 | RRIRLRPPRLPRPRPRPGCKPRP | -0.0977
107 | RRIRYRPPRLPRPRPRPLPAPRP | -0.165
108 | RRIRERPPRLPRPRPRPDACPRP | -0.0198
109 | RRIRGRPPRLPRPRPRPPQRPRP | 0.97
110 | RRIRCRPPRLPRPRPRPMCSPRP | -0.218
111 | RRIRGRPPRLPRPRPRPCVYPRP | 0.486
112 | RRIRERPPRLPRPRPRPGQVPRP | 0.126
113 | RRIRHRPPRLPRPRPRPKPLPRP | 0.127
114 | RRIRARPPRLPRPRPRPHYCPRP | -0.17
115 | RRIRLRPPRLPRPRPRPPDAPRP | 0.524
116 | RRIRKRPPRLPRPRPRPRLAPRP | 0.772
117 | RRIRVRPPRLPRPRPRPGKAPRP | -0.00584
118 | RRIRIRPPRLPRPRPRPNDMPRP | -1.13
119 | RRIRNRPPRLPRPRPRPVHFPRP | 0.0937
120 | RRIRGRPPRLPRPRPRPEICPRP | 1.73
121 | RRIRCRPPRLPRPRPRPVTCPRP | -0.121
122 | RRIRDRPPRLPRPRPRPHSHPRP | -0.19
123 | RRIRRRPPRLPRPRPRPDEMPRP | 0.753
124 | RRIRDRPPRLPRPRPRPISFPRP | -0.0563
125 | RRIRDRPPRLPRPRPRPVCRPRP | 0.251
